Test results published in patent CN113234158A (FUZHOU MAIXIN BIOTECHNOLOGY DEV CO LTD, dated 2021).

Biological target: T1, TIM3蛋白 (T细胞免疫球蛋白黏液素3) (human, UniProt Q8TDQ0 22-301)
T1 construct: whole, on cells; Endogenous TIM3 in paraffin tissue sections (immunohistochemistry); Species 'human' comes from the abstract; also called T cell immunoglobulin and mucin-3
T1 sequence (looked up): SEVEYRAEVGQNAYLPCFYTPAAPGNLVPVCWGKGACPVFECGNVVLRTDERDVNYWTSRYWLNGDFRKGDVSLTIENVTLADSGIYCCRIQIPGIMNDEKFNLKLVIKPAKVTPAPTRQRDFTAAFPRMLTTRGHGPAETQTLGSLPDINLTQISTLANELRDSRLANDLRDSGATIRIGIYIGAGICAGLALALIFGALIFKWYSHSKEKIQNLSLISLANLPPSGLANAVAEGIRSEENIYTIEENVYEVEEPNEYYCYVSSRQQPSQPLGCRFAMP
Test: immunohistochemistry on tonsil and appendix tissue chips

binding result: binds
B1: 抗TIM3蛋白单克隆抗体 (小鼠杂交瘤细胞株7H2分泌, CGMCC NO 20763) (antibody, V domains shown)
VH: QVQLQESGGDLVKTGGSLKLSCVASGFTFRRYTMSWVRQTPAKRLEWVATIGSGGGDTYYPDTVKGRFTISRDNARSTLFLQMNSLRSEDTARYYCARSSYYYDVDLYYYSMDYWGQGTSVTVSS
VL: DILMTQTPLSLSASLGDRVTISCRASQDIRNCLNWYQQKPDGTVKLLIYYTSTLQSGVPSRFSGSGSGTDYSLTISNLEAEDIATYTCQQYSKIPRTFGGGTTLEIK
notes: also called TIM3(7H2); 本抗体
